The source of these data is PMC11445558, “The molecular dissection of TRIM25’s RNA-binding mechanism provides key insights into its antiviral activity” (Nature Communications, 2024).

For orientation: Kd means the constant that tells how readily two partners part at equilibrium.

Data set [1] addresses T1, TRIM25 CC-PRY/SPRY (Homo sapiens, UniProt Q14258 189-630). Briefly: ITC. Particulars: mean of replicates 15;29;20;9; ITC: 20 mM MES pH 6.5, 75 mM NaCl, 0.5 mM TCEP, 20 C; protein NMR: 20 mM sodium phosphate pH 6.5, 150 mM NaCl, 2 mM TCEP, 293 K.
In data set [2] the target is T2, TRIM25 CC (Homo sapiens, UniProt Q14258 189-379). The data set is described as follows: ITC. Conditions: mean of replicates 59;61;63; ITC: 20 mM MES pH 6.5, 75 mM NaCl, 0.5 mM TCEP, 20 C; protein NMR: 20 mM sodium phosphate pH 6.5, 150 mM NaCl, 2 mM TCEP, 293 K.
Data set [3] concerns the target T3, TRIM25 PRY/SPRY (Homo sapiens, UniProt Q14258 439-630). The data set is described as follows: NMR; CSPs in binding site 2 only; ITC: 20 mM MES pH 6.5, 75 mM NaCl, 0.5 mM TCEP, 20 C; protein NMR: 20 mM sodium phosphate pH 6.5, 150 mM NaCl, 2 mM TCEP, 293 K. Particulars: protein: recombinant; tags: His-Trx, cleaved (3C); chain copies: 3; hairpin.
Data set [4] has as its target T3, TRIM25 PRY/SPRY. The data set is described as follows: ITC; ITC: 20 mM MES pH 6.5, 75 mM NaCl, 0.5 mM TCEP, 20 C; protein NMR: 20 mM sodium phosphate pH 6.5, 150 mM NaCl, 2 mM TCEP, 293 K. Conditions: protein: recombinant; tags: His-Trx, cleaved (3C); chain copies: 3; stem-loop (called 28-mer duplex RNA). (Isothermal titration calorimetry measures the heat released or taken up as one component is titrated into another.)

Data set [5] concerns the molecule itself. The data set is described as follows: SEC-MALS; 50 µl injected onto Superdex 200 5/150 GL in 20 mM MES, pH 6.5, 75 mM NaCl, 0.5 mM TCEP, 0.3 ml/min, room temperature. (In general: Size exclusion chromatography separates by hydrodynamic size, large species first.)
For data set [6], the target named is T1, TRIM25 CC-PRY/SPRY. The data set is described as follows: ITC; KD1 of two sites, mean of replicates 0.25;0.03;0.02; ITC: 20 mM MES pH 6.5, 75 mM NaCl, 0.5 mM TCEP, 20 C; protein NMR: 20 mM sodium phosphate pH 6.5, 150 mM NaCl, 2 mM TCEP, 293 K. Particulars: protein: recombinant; tags: His-Trx, cleaved (3C); chain copies: 2; hairpin.
Target sequence in this assay (Q14258 189-630): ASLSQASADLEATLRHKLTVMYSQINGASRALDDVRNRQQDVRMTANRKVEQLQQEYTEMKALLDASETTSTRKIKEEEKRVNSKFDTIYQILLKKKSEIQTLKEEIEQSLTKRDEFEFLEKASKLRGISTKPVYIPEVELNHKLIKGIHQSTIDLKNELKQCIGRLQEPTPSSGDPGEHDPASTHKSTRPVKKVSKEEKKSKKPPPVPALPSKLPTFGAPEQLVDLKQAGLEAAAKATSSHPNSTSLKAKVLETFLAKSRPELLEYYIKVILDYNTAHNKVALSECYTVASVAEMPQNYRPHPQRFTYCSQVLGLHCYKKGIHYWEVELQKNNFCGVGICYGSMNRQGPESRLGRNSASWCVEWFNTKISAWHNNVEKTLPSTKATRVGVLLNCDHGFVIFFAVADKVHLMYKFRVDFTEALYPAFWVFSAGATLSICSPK
In data set [7] the target is T1, TRIM25 CC-PRY/SPRY. Briefly: ITC; KD1 of two sites, mean of replicates 0.015;0.016;0.011; ITC: 20 mM MES pH 6.5, 75 mM NaCl, 0.5 mM TCEP, 20 C; protein NMR: 20 mM sodium phosphate pH 6.5, 150 mM NaCl, 2 mM TCEP, 293 K. Particulars: protein: recombinant; tags: His-Trx, cleaved (3C); chain copies: 2; hairpin with bulge.
Target sequence in this assay (Q14258 189-630): as above
Data set [8] addresses T3, TRIM25 PRY/SPRY. The data set is described as follows: ITC; mean of replicates 0.3;0.7;0.3;0.2;0.6; DENV-SL in cell; ITC: 20 mM MES pH 6.5, 75 mM NaCl, 0.5 mM TCEP, 20 C; protein NMR: 20 mM sodium phosphate pH 6.5, 150 mM NaCl, 2 mM TCEP, 293 K. Conditions: protein: recombinant; tags: His-Trx, cleaved (3C); chain copies: 3; hairpin with bulge.
Data set [9] has as its target T1, TRIM25 CC-PRY/SPRY. The data set is described as follows: ITC; KD1 of two sites; ITC: 20 mM MES pH 6.5, 75 mM NaCl, 0.5 mM TCEP, 20 C; protein NMR: 20 mM sodium phosphate pH 6.5, 150 mM NaCl, 2 mM TCEP, 293 K. Particulars: protein: recombinant; tags: His-Trx, cleaved (3C); chain copies: 2; hairpin.
Target sequence in this assay (Q14258 189-630): as above
Data set [10] concerns the target T4, TRIM25 CC-PRY/SPRY-m9 (Homo sapiens, UniProt Q14258 189-630, K283A;K285A;K320E;Y323E;H331E;K332E;H505E;K508E;K602E). The data set is described as follows: ITC; 300 uM RNA, 30 uM protein; ITC: 20 mM MES pH 6.5, 75 mM NaCl, 0.5 mM TCEP, 20 C; protein NMR: 20 mM sodium phosphate pH 6.5, 150 mM NaCl, 2 mM TCEP, 293 K. Particulars: protein: recombinant; tags: His-Trx, cleaved (3C); chain copies: 2; hairpin.

The target of data set [11] is T1, TRIM25 CC-PRY/SPRY. The data set is described as follows: ITC; ITC: 20 mM MES pH 6.5, 75 mM NaCl, 0.5 mM TCEP, 20 C; protein NMR: 20 mM sodium phosphate pH 6.5, 150 mM NaCl, 2 mM TCEP, 293 K. Conditions: protein: recombinant, tags: His-Trx, cleaved (3C), chain copies: 2.
Target sequence in this assay (Q14258 189-630): as above
Data set [12] concerns the target T2, TRIM25 CC. Described as above. Particulars: protein: recombinant; tags: His-Trx, cleaved (3C); chain copies: 2; hairpin.
Data set [13] concerns the target T4, TRIM25 CC-PRY/SPRY-m9. The data set is described as follows: ITC; 200 uM RNA, 20 uM protein; ITC: 20 mM MES pH 6.5, 75 mM NaCl, 0.5 mM TCEP, 20 C; protein NMR: 20 mM sodium phosphate pH 6.5, 150 mM NaCl, 2 mM TCEP, 293 K. Conditions: protein: recombinant; tags: His-Trx, cleaved (3C); chain copies: 2; hairpin.
For another data set, the target named is TRIM25 CC-m4 (Homo sapiens, UniProt Q14258 189-379, K320E;Y323E;H331E;K332E). Briefly: ITC; 400 uM RNA, 50 uM protein; ITC: 20 mM MES pH 6.5, 75 mM NaCl, 0.5 mM TCEP, 20 C; protein NMR: 20 mM sodium phosphate pH 6.5, 150 mM NaCl, 2 mM TCEP, 293 K. Conditions: protein: recombinant; tags: His-Trx, cleaved (3C); chain copies: 2; hairpin.
The target of a further data set is TRIM25 PRY/SPRY-m3 (Homo sapiens, UniProt Q14258 439-630, H505E;K508E;K602E). The description is as above. Conditions: protein: recombinant; tags: His-Trx, cleaved (3C); chain copies: 3; hairpin.
Chain of TRIM25 PRY/SPRY-m3 (Q14258 439-630 H505E/K508E/K602E): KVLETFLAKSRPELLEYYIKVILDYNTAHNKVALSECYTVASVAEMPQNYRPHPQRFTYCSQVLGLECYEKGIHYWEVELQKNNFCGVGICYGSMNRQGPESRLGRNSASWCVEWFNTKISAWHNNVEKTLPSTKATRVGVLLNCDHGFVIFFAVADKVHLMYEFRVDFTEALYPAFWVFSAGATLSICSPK
In a further data set the target is TRIM25 CC-m2 (Homo sapiens, UniProt Q14258 189-379, K283A;K285A). The data set is described as follows: ITC; enthalpy reduced about 10-fold; ITC: 20 mM MES pH 6.5, 75 mM NaCl, 0.5 mM TCEP, 20 C; protein NMR: 20 mM sodium phosphate pH 6.5, 150 mM NaCl, 2 mM TCEP, 293 K. Conditions: protein: recombinant; tags: His-Trx, cleaved (3C); chain copies: 2; hairpin.
The target of data set [14] is T3, TRIM25 PRY/SPRY. Briefly: ITC; Supplementary Table 1 first row (probably pre-let-7) reads 0.76-0.97 uM; ITC: 20 mM MES pH 6.5, 75 mM NaCl, 0.5 mM TCEP, 20 C; protein NMR: 20 mM sodium phosphate pH 6.5, 150 mM NaCl, 2 mM TCEP, 293 K. Conditions: protein: recombinant; tags: His-Trx, cleaved (3C); chain copies: 3; hairpin.
The target of data set [15] is T3, TRIM25 PRY/SPRY. The data set is described as follows: NMR; CSPs in binding site 1 only; ITC: 20 mM MES pH 6.5, 75 mM NaCl, 0.5 mM TCEP, 20 C; protein NMR: 20 mM sodium phosphate pH 6.5, 150 mM NaCl, 2 mM TCEP, 293 K. Particulars: protein: recombinant; tags: His-Trx, cleaved (3C); single-stranded.

T3 sequence (Q14258 439-630): as the sequence (Q14258 439-630 H505E/K508E/K602E) above, with E67H, E70K, E164K counted along it

Regarding Lnczc3h7a loop, the Kd turned out to be 18000 nM in the data set with TRIM25 CC-PRY/SPRY [1] and 61000 nM with TRIM25 CC [2].

B1: pre-let-7 stem (stem-fusion) (structured_RNA)
RNA: GUAUAGUUCAACUAUAC
B1: the binding result in the data set with TRIM25 PRY/SPRY [3] is listed as “binds”.

B2: 28-mer (structured_RNA)
RNA: AUGGCUAGCUGGAGCCACCCGCAGUUCG
B2: in the data set with TRIM25 PRY/SPRY [4], the Kd is 900 nM.

B3: TRIM25 CC (aa 189–379) (domain or fragment, human, UniProt Q14258 189-379, looked up)
chain: ASLSQASADLEATLRHKLTVMYSQINGASRALDDVRNRQQDVRMTANRKVEQLQQEYTEMKALLDASETTSTRKIKEEEKRVNSKFDTIYQILLKKKSEIQTLKEEIEQSLTKRDEFEFLEKASKLRGISTKPVYIPEVELNHKLIKGIHQSTIDLKNELKQCIGRLQEPTPSSGDPGEHDPASTHKSTRP
notes: also called CC domain; coiled-coil (CC) dimerisation domain
As for B3, the binding result in data set [5] is “binds”.

B4: TRIM25 CC-m2 (domain or fragment, human, UniProt Q14258 189-379, looked up)
chain: ASLSQASADLEATLRHKLTVMYSQINGASRALDDVRNRQQDVRMTANRKVEQLQQEYTEMKALLDASETTSTRKIKEEEKRVNSKFDTIYQILLAKASEIQTLKEEIEQSLTKRDEFEFLEKASKLRGISTKPVYIPEVELNHKLIKGIHQSTIDLKNELKQCIGRLQEPTPSSGDPGEHDPASTHKSTRP
As to B4, in data set [5], the binding result is “binds”.

B5: TRIM25 CC-m4 (domain or fragment, human, UniProt Q14258 189-379, looked up)
chain: ASLSQASADLEATLRHKLTVMYSQINGASRALDDVRNRQQDVRMTANRKVEQLQQEYTEMKALLDASETTSTRKIKEEEKRVNSKFDTIYQILLKKKSEIQTLKEEIEQSLTKRDEFEFLEKASKLRGISTEPVEIPEVELNEELIKGIHQSTIDLKNELKQCIGRLQEPTPSSGDPGEHDPASTHKSTRP
Regarding B5, the binding result in data set [5] was “binds”.

B6: Lnczc3h7a-SL (structured_RNA)
RNA: UUUUAUCUGAGUUGGAGGUGAAG
As for B6, in the data set with TRIM25 CC-PRY/SPRY [6], the Kd worked out at 100 nM.

B7: DENV-SL (structured_RNA)
RNA: GCAGGUCGGAUUAAGCCAUAGUACGGGAAAAACUAUGCUACCUG
B7: the Kd with TRIM25 CC-PRY/SPRY [7] was 14 nM; with TRIM25 PRY/SPRY [8], 420 nM.

B8: pre-let-7_modified (structured_RNA)
RNA: GUAUAGUUUAAAGAAUGGAUAACUAUAC
B8: the dissociation constant Kd with TRIM25 CC-PRY/SPRY [9] came out at 180 nM. Moreover, the binding result in the data set with TRIM25 CC-PRY/SPRY-m9 [10] was “no binding”.

B9: pre-let-7a-1@2 (pre-let-7) (structured_RNA)
RNA: GUAUAGUUUAAAAGGAGAUAACUAUAC
With B9, the Kd stood at 62 ± 44 nM with TRIM25 CC-PRY/SPRY [11] (hairpin), 3200 ± 700 nM with TRIM25 CC [12], 4000 ± 2000 nM with TRIM25 CC-m2 and 4000 ± 1000 nM with TRIM25 PRY/SPRY [14]. The binding result with TRIM25 CC-PRY/SPRY-m9 [13], with TRIM25 CC-m4 and with TRIM25 PRY/SPRY-m3 was “no binding” each time.

B10: RNA_50_motif1&2 (structured_RNA)
RNA: UUAGUGGCAGACAAAGGCAUCGAGGCAGCCGCAGAAGUUGUCUGCGAAGU
Consider B10, for which the dissociation constant (Kd) with TRIM25 CC-PRY/SPRY [11] (hairpin with bulge) was determined as 3.5 nM.

B11: pre-let-7 loop (ssRNA)
RNA: UAAAAGGAGAU
Take B11: the binding result with TRIM25 PRY/SPRY [15] was “binds”.
